Assay results published in the supplement of paper PMC9170038.

Tested on: MS2 coat protein
Assay: apparent KD of MS2 coat protein; designed switch direction (-1 OFF switch, 1 ON switch): -1; higher = weaker reporter binding
Procedure, shortened: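 Normalised cluster fluorescence was curve-fitted, and each design's median over clusters is its apparent KD. Before this, SNAP-549-labelled MS2 coat protein was titrated from 0.7 or 1.5 nM, doubling to 3 µM, over RNA switches transcribed on Illumina chips by stalled E. coli RNA polymerase. Titrations had no input, 200 uM small-molecule ligand, or an oligonucleotide input, and steps lasted 0.8–1.5 h (lowest) to 10–20 min (highest).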

[1] = input ligand: microRNA oligo, concentration not stated
[2] = Eterna round: R95, input ligand: microRNA oligo, concentration not stated
[3] = Eterna round: R95, input ligand: FMN 200 uM
[4] = Eterna round: R95, input ligand: none

Sequence	apparent KD of MS2 coat protein (input ligand: FMN 200 uM) [nM]	apparent KD of MS2 coat protein (input ligand: none) [nM]	apparent KD of MS2 coat protein [1] [nM]	apparent KD of MS2 coat protein [2] [nM]	apparent KD of MS2 coat protein [3] [nM]	apparent KD of MS2 coat protein [4] [nM]
UGCAGACGAGGAUAUGAUAAAGAUCACAUGAGGAUCACCCAUGUACGCAGGAUACUGCGAUCAGAAGGCGUCUGCA [E5/1-A3] (Eterna round: R97, puzzle: Exclusion 5)	16.3	13				
CUUAUGGUCCAUACCUAGAACAUGAGGAUCACCCAUGUAAUACAUGACACCUACCUUAAGCACAGCUCGUCUUGUAG [Eternabot (Original) Solution 30] (Eterna round: R97, puzzle: Sensor, turn-off variant 1)	48.9	57				
UACAUGAGGAUCACCCAUGUUUUGUCGUGUAUGGUAUUUAUCUAGGAUAUCAAGUUAUUAAUUUAUGAGAAGGAGAAUAUUAAU [JMF's solution 32] (Eterna round: R96, puzzle: Exclusion NG 3)	43.9	42.1	27.4			
GGUGCGUUUGUGAGGAUAUGCUGGUCCUUGGCUCAGCAGAAGGCACAUGAGGAUCACCCAUGUGGUGUCGUACC [salish99_Bmod_Ex4_033] (puzzle: Brourd's mod of Exclusion 4)				239		
AGUACUAACACGGAAGUGUUAGUACUAUAAGCUUGUGUUACAUGAGGAUCACCCAUGUCCUCAUAAGCUCGUCUUAU [Mat - Sensor v3 - Turn-off var 2 - D69] (puzzle: Sensor v3, turn-off variant 2)				87	94.5	98.2
GGAUCGAGUGUGAGGAUAUGCAGGUCCUUGGAUCUGCAGAAGGCACAUGAGGAUCACCCAUGUGGAGACGGUCC [Mat - Exclusion 4 - JL Mod - D75] (puzzle: Brourd's mod of Exclusion 4)				64.2	406	110
GUCAUACAUGAGGAUCACCCAUGUGAGGAUAUGGGCGGCGCCGCAAAAGCGGCGCCGCCCAGAAGGCGCAUGAU [Malcxlusion 5 - Jieux - Exclusion 1] (Eterna round: R97, puzzle: Exclusion 1)	195	71.5				
AAUGAUUGACGAGGAUAUUGUGGUAGAUCACGACGAGAAGGCGUAUGUCACAUGAGGAUCACCCAUGUGAGCUUUGUGGAUAGA [Ex NG1 #74] (Eterna round: R96, puzzle: Exclusion NG 1)	27.1	20.7	16.1			
AAAUACAAGCAAAGAUCCUACAUGAGGAUCACCCAUGUGUUCGUCUUAUAAAGUACUAUCACGAAAGUGAUAGUACA [Sensor 3, v1 - 18] (puzzle: Sensor v3, turn-off variant 1)				1100	309	198
AAAGCCAAGCGAGGAUAUGCGAUAGUUGAUCUUCGUGAGGACAUGAGGAUCACCCAUGUGCUGCAGCAGAAGGCGCAGGUAAAG [Anramaqu] (Eterna round: R96, puzzle: Exclusion NG 2)	754	318	140			
AGCAUCUGAGGAUAUACUGGGUAUGGAAGGCGAAGGGCCAGACAUGAGGAUCACCCAUGUAGAAGGCAGUUUGC [Esenonan] (Eterna round: R96, puzzle: Exclusion 2)	39.2	65.4	42			
CACCUACAUGAGGAUCACCCAUGUGAGGAUAUGGAACAACAAGAACAUUUACUUGUUCCCAGAAGGCACAUUGG [jun14#1] (Eterna round: R97, puzzle: Exclusion 1)	64.3	130				
UUUUUGUCAGGAUAUGCAUGUUUUUUUUUUUUUUUUUUCAUGCAGAAGGGACAUGAGGAUCACCCAUGUAGUUU [Ex4 - 3 - 10] (Eterna round: R96, puzzle: Exclusion 4)	53.7	63.2	61.7			
GAUCAUGCAGGAUAUACAUGGAACAUUAAAUCAUGAAUUUCACAUGAGGAUCACCCAUGUAGAAGGGCAUGAUC [Omei Ex2 A16] (Eterna round: R97, puzzle: Exclusion 2)	32.5	31.6				
GUGGGUUACAUGAGGAUCACCCAUGUAUAGUGGGAAGAGAGAUAGGAUAUGAUGUGAGAAUUAUAUUAGAAGGAUCGAGACUAG [AK ExNG3-2.6] (Eterna round: R96, puzzle: Exclusion NG 3)	632	351	236			
CAGCUGAAUGUGAGGAUAUGUCGAGCUGCGGCUCGAUAGAAGGCACAUGAGGAUCACCCAUGUCUCAACAGCUG [BmEx4/2-C3] (Eterna round: R97, puzzle: Brourd's mod of Exclusion 4)	215	31.2				
AUGAGGUUAGGAUAUACAUGAGGAUCACCCAUGUUGAAGGGUUAGGUAGGCGGAGCUGGUAGAAGGAACGGAGC [JR_Exclu3_Sub057] (puzzle: Exclusion 3)				38.8		
CGUGUACGAGGAUAUAGAUUAGAUGACAUGAGGAUCACCCAUGUGAUCAAUCUAUUUAGUUUAGAAGGUGUACAUG [JR_Ex5_Sub051] (Eterna round: R97, puzzle: Exclusion 5)	16.1	12.5				
GGCUUGUAAGGAUAUGCGAAGGGAAGGAGAGGGACAGAGAAGCAGAAGGUACAUGAGGAUCACCCAUGUAAGGG [AK-MS2ROC-r4-exclusion4-7] (Eterna round: R97, puzzle: Exclusion 4)	247	94.9				
GACUUCUCUGAGGAUAUUGCAUCAUACGAUAAAUAAGAAGGCAGAACAUGAGGAUCACCCAUGUGGGUUUCAAG [Bingo-Bango-34] (Eterna round: R97, puzzle: Exclusion 6)	170	81.4				
CCGCAGCAAGGAUAUACUUGCGGUGGUGAACGAGGGCUUAUACUUGAGGAUCACCCAAGUAGAAGGUGCAAAAC [Mamaed] (Eterna round: R97, puzzle: Exclusion 2)	33.9	22.4				
AUUAGUAAUAAGGAUAUCACUAGCUGCGGCUAGUGAGAAGGUAUUACAUGAGGAUCACCCAUGUGAUCAAUUAA [E6/3-A3] (Eterna round: R97, puzzle: Exclusion 6)	912	476				
CAAUUCCGAGGAUAUACAUGAGGAUCACCCAUGUCGGGCCUCAGCGUUUAGCGCUUAAGUAGAAGGUGGGUUUC [JL Riri mod 5] (puzzle: Exclusion 3)				32.5		
ACAUGUCAUCUAGGAUAUUGGACACAUGAGGAUCACCCAUGUACCCGGAGGCUUUACUAUGAGUUCGAGAAGGAGAUGUACAUG [Ex NG2 #72] (Eterna round: R96, puzzle: Exclusion NG 2)	133	57.9	38.6			
AGAGACAAUCUAGGAUAUGUGUAUGAAGAGUGCGCAGAAGGAGACAUGAGGAUCACCCAUGUACAGCGACAGAAGACGACAACC [Matt's Exclusion 2] (Eterna round: R96, puzzle: Exclusion NG 1)	14.4	17.5	36.2			
